# Data published in patent US20260034194A1, “PHARMACEUTICAL COMPOSITIONS AND METHODS OF TREATING PSP” (priority 2022, published 2026).
# Where a chain is given by its changes, count along the chain named. Names and notes keep the numbering of the source. “Also recorded” adds a separate entry of the source. Where two headings read alike, the source gives them in different places.
# B1: RcSxph: Rana (Lithobates) catesbeianus (American bullfrog) saxiphilin, SEQ ID NO: 1 (protein)
# chain: MAPTFQTALFFTIISLSFAAPNAKQVRWCAISDLEQKKCNDLVGSCNVPDITLVCVLRSSTEDCMTAIKDGQADAMFLDSGEVYEASKDPYNLKPIIAEPYSSNRDLQKCLKERQQALAKKMIGHYIPQCDEKGNYQPQQCHGSTGHCWCVNAMGEKISGTNTPPGQTRATCERHELPKCLKERQVALGGDEKVLGRFVPQCDEKGNYEPQQFHGSTGYSWCVNAIGEEIAGTKTPPGKIPATCQKHDLVTTCHYAVAMVKKSSAFQFNQLKGKRSCHSGVSKTDGWKALVTVLVEKKLLSWDGPAKESIQRAMSKFFSVSCIPGATQTNLCKQCKGEEGKNCKNSHDEPYYGNYGAFRCLKEDMGDVAFLRSTALSDEHSEVYELLCPDNTRKPLNKYKECNLGTVPAGTVVTRKISDKTEDINNFLMEAQKRQCKLFSSAHGKDLMFDDSTLQLALLSSEVDAFLYLGVKLFHAMKALTGDAHLPSKNKVRWCTINKLEKMKCDDWSAVSGGAIACTEASCPKGCVKQILKGEADAVKLEVQYMYEALMCGLLPAVEEYHNKDDFGPCKTPGSPYTDFGTLRAVALVKKSNKDINWNNIKGKKSCHTGVGDIAGWVIPVSLIRRQNDNSDIDSFFGESCAPGSDTKSNLCKLCIGDPKNSAANTKCSLSDKEAYYGNQGAFRCLVEKGDVAFVPHTVVFENTDGKNPAVWAKNLKSEDFELLCLDGSRAPVSNYKSCKLSGIPPPAIVTREESISDVVRIVANQQSLYGRKGFEKDMFQLFSSNKGNNLLFNDNTQCLITFDRQPKDIMEDYFGKPYYTTVYGASRSAMSSELISACTIKHC
# B2: Y558I: RcSxph STX binding pocket mutant Y558I (protein)
# chain: B1 chain with Y577I
# B3: I782A: RcSxph STX binding pocket mutant I782A (protein)
# chain: B1 chain with I801A
# B4: E540A: RcSxph STX binding pocket mutant E540A (protein)
# chain: B1 chain with E559A
# B5: P727A: RcSxph STX binding pocket mutant P727A (protein)
# chain: B1 chain with P746A
# How the values were obtained:
# [1] = format: binding
# [2] = tested on: female CD-1 mice; settings: 60 nmoles/Kg RcSxph, IP, observed up to one hour
# [3] = Thermofluor (TF) assay of STX binding; settings: 1.1 μM Sxph, 0-20 μM STX; ΔTm at 20 μM toxin
# [4] = tested on: STX poisoning in female CD-1 mice; format: in vivo; settings: RcSxph:STX 2:1 molar ratio, 30 nmoles/Kg STX, 60 nmoles/Kg RcSxph, IP, observed up to one hour
# [5] = tested on: TTX poisoning in female CD-1 mice; settings: mouse, in vivo, ip
# [6] = format: binding; settings: ITC, STX, 25° C.
# Protocol: . […] In almost all mutants, binding affinity loss correlated with a reduction in enthalpy, consistent with a loss of interactions (Table S2). […]. […] Together, these three assays (FIGS. 1E and G) provide a robust and versatile suite of options for characterizing STX:Sxph interactions.
# ITC measurements were performed at 25° C. using a MicroCal PEAQ-ITC calorimeter (Malvern Panalytical). […]. This STX stock was diluted with the SEC buffer to prepare 100 μM or 300 μM STX solutions having a final buffer composition of 135 mM NaCl, 9 mM HEPES, pH 7.4. […]. The calorimetric experiment settings were: reference power, 5 μcal/s; spacing between injections, 150 s; stir speed 750 rpm; and feedback mode, high. Data were analyzed using MicroCal PEAQ-ITC Analysis Software (Malvern Panalytical) using a single binding site model. The heat of dilution from titrations of 100 μM STX in 135 mM NaCl, 9 mM HEPES, pH 7.4 into 135 mM NaCl, 9 mM HEPES, pH 7.4 was subtracted from each experiment to correct the baseline.
# [7] = read-out: RcSxph affinity for STX; prior radioligand assay; cited from earlier work
# [8] = tested on: Phyllobates terribilis NaV1.4 (PtNaV1.4); assay: Two-electrode voltage clamp: Sxph rescue of PtNaV1.4 from STX block in Xenopus oocytes; format: cell-based; settings: [Sxph]:[STX] ratio, 100 nM STX, PtNaV1.4 in Xenopus oocytes
# [9] = format: binding; settings: for Kd: FP; for ΔΔG: ΔΔG = RT ln(Kd mutant or XSxph/Kd RcSxph), T = 298K, FP with F-STX
# [10] = 1 nM F-STX, 25° C., errors S.D.
Molecule,ΔTm (TTX-induced change of melting temperature) [1] [°C],adverse effects of RcSxph alone [2],ΔTm (STX-induced change of melting temperature) [3],protection of mice from STX poisoning [4],mitigation of TTX poisoning in mice [5],Kd [6] [nM],ΔH [6] [kcal/mol],ΔS (cal mol^−1 K^−1) [6] [cal mol^−1 K^−1],ΔH ([6]; listed as RcSxph WT) [kcal/mol],Kd [7] [nM],Effective Rescue Ratio50 (ERR50) [8],"Kd [9, 10] [nM]",ΔΔG [9] [kcal/mol],ΔG [6] [kcal/mol],Kd ([9]; F-STX) [nM]
B1,0.3,no detectable adverse effects,3.6 °C,protects mice from STX poisoning; also recorded: sufficient to protect mice completely from STX intoxication,unable to mitigate TTX poisoning,1.2 ± 0.8,-16.1 ± 0.2,−12.7 ± 0.9,-16.1 ± 0.2,~1,–,–,–,–,–
B2,–,–,–,–,–,1.1 ± 0.5,-15.5 ± 0.3,−10.5 ± 0.6,–,–,0.81±0.01,1.2 ± 0.2,-1.07,-12.2 ± 0.3,–
B3,–,–,DTm increases relative to wild-type,–,–,–,–,–,–,–,0.87±0.02,3 ± 0.8,-0.53,–,–
B4,–,–,complete loss of the thermal shift,–,–,–,–,–,–,–,eliminated,15300 ± 4130,4.52,–,15300
B5,–,–,–,–,–,31.3 ± 11.6,-11.5 ± 0.0,−4.2 ± 0.9,–,–,> 4,56.9 ± 12.1,1.21,-10.3 ± 0.2,–
